In US20230094463A1, “ANTIBODIES THAT DISRUPT THE INTERACTION OF GAL3 AND INSULIN RECEPTOR OR INTEGRINS AND METHODS OF USE THEREOF” (TrueBinding, Inc., priority 2019, published 2023):

Legend:
[1] = biological target: T1, interaction of Gal3 and INSR (Homo sapiens, UniProt P17931); assay: ELISA of blocking of Gal3-INSR association by Gal3-binding antibodies
T1 construct: 6-histidine tag (linker-spaced); purchased Acro Biosystems (Gal3); Sino Biological (INSR) GA3-H5129; 11086-H08H
Procedure: Positively scoring wells were evaluated for the ability to block association of Gal3 and INSR. To identify Gal3-targeted antibodies with the ability to block the interaction of Gal3 and INSR, purified Gal3 and INSR proteins were incubated in the presence of Gal3-immunization hybridoma supernatants described above, or without antibody, and protein interaction was evaluated by ELISA. Human Galectin-3 protein (Acro Biosystems, GA3-H5129) was diluted in PBS (Corning, 21-030-CM) to a concentration of 3 μg/ml and added to the wells of a 96-well ELISA plate (Thermo Fisher, 44-2404-21). After incubating the plate at 4° C. overnight, the plate was washed three times with PBST (PBS with 0.05% Tween 20 [VWR, 0777]). The plate was then blocked for an hour with 2% BSA (EMD Millipore, 126609) in PBST at room temperature with gentle rocking. Thereafter, the 2% BSA in PBST was discarded and antibody or inhibitor (3-fold dilutions beginning at 20 μg/ml, 60 μg/ml, or 180 μM) in 2% BSA in PBST was added to the wells. Afterwards, 6 μg/ml of human Insulin Receptor (Sino Biological, 11086-H08H) in 2% BSA in PBST was added to the antibody or inhibitor in the wells in a 1:1 ratio. The plate was incubated for an hour at room temperature with gentle rocking. Thereafter, the plate was washed three times with PBST, and 0.3 μg/ml of human INSR Biotinylated Antibody (R&D Systems, BAF1544) in 2% BSA in PBST was added to the wells. The plate was incubated for an hour with gentle rocking and then washed three times with PBST. Avidin-HRP (1:2000) was then added to the wells. The plate was incubated at room temperature for an hour with gentle rocking and then washed three times with PBST. TMB substrate (Thermo Scientific, 34029) was then added to each well. The reaction was stopped with 1M HCl (JT Baker, 5620-02) and read using a plate reader (Molecular Devices) at absorbance of 450 nm.

[2] = biological target: T2, Gal3 peptides (SEQ ID NOs: 3-26) (Homo sapiens, UniProt P17931); assay: Gal3 peptide library binding ELISA (epitope mapping); settings: for binding to Gal3 Peptide 1: Peptide 1 (SEQ ID NO: 3), amino acids 1-20 of Gal3; for binding to Gal3 Peptide 6: Peptide 6 (SEQ ID NO: 8), amino acids 51-70 of Gal3; for binding to Gal3 Peptide 7: Peptide 7 (SEQ ID NO: 9), amino acids 61-80 of Gal3
T2 construct: a library of 24 amino acid peptides representing portions of Gal3; purchased LifeTein custom order
Procedure: (§1) To identify the epitopes to which Gal3 antibodies with and without Gal3-INSR blocking activity bound, a library of 24 amino acid peptides representing portions of Gal3, depicted in FIG. 27, was produced and the ability of each peptide to bind Gal3 antibodies was evaluated by ELISA. At least 2 μg/ml of hGal3 peptide in 50 μl of PBS or 0.1 μg/ml of full-length human Gal3 protein (GenScript) and human Galectin-3 protein (Acro Biosystems, GA3-H5129) were diluted in PBS (Corning, 21-030-CM) to concentrations of at least 2 μg/ml or 0.1 μg/ml, respectively, and added to the wells of a 96-well ELISA plate (Thermo Fisher, 44-2404-21). After incubating the plate at 4° C. overnight, the plate was washed three times with PBST (PBS with 0.05% Tween 20 [VWR, 0777]). The plate was then blocked for an hour with 2% BSA (EMD Millipore, 126609) in PBST at room temperature with gentle rocking. Thereafter, the 2% BSA in PBST was discarded and human Galectin-3 hybridoma supernatants or antibodies were diluted in 2% BSA in PBST to concentrations of at least 0.1 μg/ml and added to the wells. The plate was incubated for an hour at room temperature with gentle rocking and then washed three times with PBST. Afterwards, Goat Anti-Mouse IgG-HRP (Jackson ImmunoResearch, 115-036-1461) or Goat Anti-Rat IgG HRP (Abcam, ab205720) diluted in 2% BSA in PBST (1:4000) were added to the wells. The plate was incubated for 30 minutes to 1 hour at room temperature with gentle rocking and then washed three times with PBST. TMB substrate (Thermo Scientific, 34029) was then added to each well. The reaction was stopped with 1M HCl (JT Baker, 5620-02) and read using a plate reader (Molecular Devices) at absorbance of 450 nm.
(§2) Human Gal3 peptides (LifeTein, custom order) and human Gal3 proteins (R&D Systems, 8259-GA; TrueBinding, QCB200349) were diluted in PBS (Corning, 21-030-CM) to concentrations of at least 100 μg/mL (peptides) or 1 μg/mL (proteins), and added to the wells of several 96-well ELISA plates (Thermo Fisher, 44-2404-21). After incubating the plates at 4° C. overnight, the plates were washed three times with PBST (PBS with 0.05% Tween 20 [VWR, 0777]). The plates were then blocked for an hour with 2% BSA (EMD Millipore, 126609) in PBST at room temperature with gentle rocking. Thereafter, the 2% BSA in PBST was discarded and Gal3-binding antibodies (reformatted hIgG4 [S228P]) were diluted in 2% BSA in PBST to concentrations of 5 μg/mL and added to the wells. The plates were incubated for an hour at room temperature with gentle rocking and then washed three times with PBST. Afterwards, Peroxidase AffiniPure F(ab′)2 Fragment Goat Anti-Human IgG (H+L) polyclonal antibody (Jackson ImmunoResearch, 109-036-003), was diluted in 2% BSA in PBST (1:4000) and added to the wells. The plates were incubated for 1 hour at room temperature with gentle rocking and then washed three times with PBST. TMB substrate (Thermo Scientific, 34029) was then added to each well. The reaction was stopped with 1M HCl (JT Baker, 5620-02) and read using a plate reader (Molecular Devices) at absorbance of 450 nm.

human Gal3 = biological target: T3, human Gal3 (Homo sapiens, UniProt P17931); assay: Antibody binning assays (competition for binding to Gal3); settings: binning per Examples 3 and 18
T3 construct: His; purchased AcroBio GA3-H5129
T3 sequence (P17931 whole entry): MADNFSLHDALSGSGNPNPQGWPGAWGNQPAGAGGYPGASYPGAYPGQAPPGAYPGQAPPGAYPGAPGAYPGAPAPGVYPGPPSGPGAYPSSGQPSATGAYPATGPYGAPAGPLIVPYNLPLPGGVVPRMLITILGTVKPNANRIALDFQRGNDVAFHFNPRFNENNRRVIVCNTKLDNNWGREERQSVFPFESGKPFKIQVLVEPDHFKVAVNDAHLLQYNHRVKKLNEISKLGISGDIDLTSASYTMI
Procedure: To determine whether Gal3-binding antibodies with Gal3-INSR blocking activity bind to the same or overlapping regions of the Gal3 molecule, antibody binning assays were performed to assess the ability of antibodies to simultaneously bind Gal3. Amine-reactive probes were loaded onto a Gator biosensor (Probe Life, Palo Alto, Calif.), equilibrated in dH20 for 60 seconds, dipped into 100 μl EDC 0.2M/NHS 0.05M activation buffer for 30 seconds, then dipped into a solution of […] human Gal3-His in 10 mM NaOAc buffer, pH 5 until binding was saturated, and quenched in 1 M ethanolamine pH 8.5 for 300 seconds. Following Gal3-His loading, tips were dipped in 20 μg/mL saturating antibody, then successively dipped into 5 μg/mL competing antibody.
The epitope binning assay was done in a sandwich format on the high-throughput SPR-based Carterra LSA unit (CarterraBio, Salt Lake City, Utah). First, the purified antibodies were diluted to 10 μg/ml concentration in 10 mM NaOAc (pH 5.0) and then were covalently coupled via amine group to HC200M chip activated by EDC and S-NHS to immobilize antibodies to different positions of a 384-spot array. One hundred thirty-eight binning cycles were run on the array of immobilized antibodies. In each cycle, first, human Gal3 (AcroBio GA3-H5129) was injected over the entire array to bind to different antibodies (primary antibody), followed by one antibody (secondary antibody) selected among the panel of 150 anti-GAL3 antibodies tested. At the end of each cycle, the array was regenerated by 10 mM Glycine (pH 2.0) to remove bound antigen and secondary antibody from the array. The data analysis was done using the Epitope software by CarterraBio.

[3] = test system: Gal3 peptides (SEQ ID NOs: 3-26); assay: Gal3 peptide library binding ELISA (epitope mapping); parameters: species or system human
Procedure: as §1, §2

T1 sequence (P17931 2-250 limits assumed): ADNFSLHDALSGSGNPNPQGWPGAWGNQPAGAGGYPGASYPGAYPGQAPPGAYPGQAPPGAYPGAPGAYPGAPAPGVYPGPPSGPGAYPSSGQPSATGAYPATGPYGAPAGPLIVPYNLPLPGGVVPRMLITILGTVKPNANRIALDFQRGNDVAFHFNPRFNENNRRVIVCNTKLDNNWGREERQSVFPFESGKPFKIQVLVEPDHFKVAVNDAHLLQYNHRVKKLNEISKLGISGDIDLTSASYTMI

| Molecule | binding to Gal3 Peptide 6 [2] | binding to Gal3 Peptide 7 [2] | epitope bin (competitive binding to Gal3) (human Gal3) | further results |
| --- | --- | --- | --- | --- |
| 13G4.2F8: anti-Gal3 monoclonal antibody (antibody, V domains shown) VH: QVQLQQPGAELVKPGASVKLSCKASGYTFTSYWMHWVKQRPGQGLEWIGMIHPNSGSTDYNEKFKNKATLNVDKSSSTAYIQLSSLTSEDSAVYYCTRWGIYYYARDYWGQGTTLTVSS VL: DIVMTQSQKFMSTSVGERVSITCKASQNVGTNVAWYQQKAGQSLELLIYGASNRHTGVPDRFTGSGSGTDFTLTITNVQSEDMTNYFCEQYSNFPLTFGAGTKLELK |  |  |  | Gal3-INSR blocking activity (in words) [1]: poorly block |
| 24D12.2H9: anti-Gal3 monoclonal antibody (antibody, V domains shown) VH: QVQLKQSGPGLVQPSQSLSITCTVSGFSLTSYGVHWVRQAPGKGLEWLGVIWSGGSTDYNAAFMSRLSISKDNSKSQVFFKMNSLQADDTAIYYCAKSPDGYDVAWFGYWGQGTLVTVSA VL: DIVMTQSHKFMSTSVGDRVSITCKASQDVRTAVAWYQQKPGQSPKLLIYWASTRHTGVPDRFTGSGSGTDFTLTLSNVQSEDLADYFCQQYSSYPWTFGGGTKLEIK |  |  |  | Gal3-INSR blocking activity (in words) [1]: poorly block |
| 4A11.2B5: anti-Gal3 monoclonal antibody (antibody, V domains shown) VH: QVQLQQSGPELVKPGASVKISCKASGYSFTNYYIHWVKQRPGQGLEWIGWIYPGSGNTNYNEKFKGKATLTADTSSSTTNMQLSSLTSEDSAVYYCSTAPGGFDVWGSGTTVTVSS VL: DIVMTQAAFSNPVTLGTSASISCRSSKSLLHSDGITYLYWYLQRPGQSPQLLIYRMSNLASGVPDRFSGSGSGTDFTLRISRVEAEDVGVYYCAQMLEFPLTFGAGTKLELK | bind and bound |  | bin 3 |  |
| F846C.1F5: anti-Gal3 antibody (antibody, V domains shown) VH: QIQLVQSGPELKKPGETVKISCKASGYTFTNYGMNWVKQAPGKGLKWMGWINTYTGEPSYADDFKGRFAFSLETSASTAYLQINNLKNEDMATYFCARWGGYDGDYYAMDYWGQGTSVTVSS VL: NIMMTQSPSSLAVSAGEKVTMSCKSSQSVLYSSNQKNYLAWYQQKPGQSPKLLIYWASTRESGVPDRFTGSGSGTDFTLTISSVQPEDLAVYYCHQYLSSLTFGAGTKLELK | bind and bound |  |  | binding to Gal3 Peptide 17 ([3]; Peptide 17 (SEQ ID NO: 19)): bind |
| 15F10.2D6: anti-Gal3 monoclonal antibody (antibody, V domains shown) VH: EVQLVESGGGLVKPGGSLKLSCAASGFAFSSYAMSWVRQTPEKRLEWVATISDGGVYTYYTDHVKGRFTISRDNAEDNLYLQMSHLKSEDTAMYYCVRDGGYWGQGTTLTVSS VL: DVLMTQTPLSLPVSLGDQASISCRSSQSIVHNNGNTYLEWYLQKPGQSPKLLIYKVSNRFSGVPDRFSGSGSGTDFTLKISRVEAEDLGVYYCFQGSHVPLTFGGGTKLELK |  | bind and bound | bin 8 | binding to Gal3 Peptide 2 ([2]; Peptide 2 (SEQ ID NO: 4)): bind; binding to Gal3 Peptide 3 ([2]; Peptide 3 (SEQ ID NO: 5)): bind; binding to Gal3 Peptide 4 ([2]; Peptide 4 (SEQ ID NO: 6), amino acids 31-50 of Gal3): bind |

Continued, in another order:

| binding to Gal3 Peptide 6 [2] | binding to Gal3 Peptide 7 [2] | epitope bin (competitive binding to Gal3) (human Gal3) | Molecule | further results |
| --- | --- | --- | --- | --- |
| bind and bound | bound | bin 3 | 2D10.2B2: anti-Gal3 monoclonal antibody (antibody, V domains shown) VH: QVQLQQSGPELVKPGASVKISCKASGYTFTDYYINWVKQRPGQGLEWIGWIYPGSNDTKYNEKFKGKATLTVDTSSSTAYMQLGSLTSEDSAVYFCANYFGCSGWFFDVWGTGTTVTVSS VL: DIVMTQAAFSNPVTLGTSASISCRSSKSLLHSDGITYLYWYLQRPGQSPQLLIYRMSNLASGVPDRFSGSGSGTDFTLRISRVEAEDVGVYYCAQMIEFPLTFGAGTILELK | binding to Gal3 Peptide 1 [2]: bound |
|  | bind and bound |  | F846TC.14A2: anti-Gal3 antibody (antibody, V domains shown) VH: QIQLVQSGPELKKPGETVKISCKASGYTFTNYGMNWVKQAPGKGLKWMGWINTYTGEPTYAGDLKGRFAFSLETSASTAYLQINNLKNEDTATYFCVRYTMDYWGQGTSVTVSS VL: QAVVTQESALTTSPGETVTLTCRSSTGAVTTSNYANWVQEKPDHLFTGLIGGINNRVPGVPARFSGSLIGDKAALTITGAQTEDEAIYFCALWYSNHWVFGGGTKLTVL | binding to Gal3 Peptide 1 [2]: bind and bound; binding to Gal3 Peptide 8 ([3]; Peptide 8 (SEQ ID NO: 10)): bind |
